B1: Spd1: intrinsically disordered S. pombe protein, sequence printed in b198 (protein, UniProt Q10585 1-124, looked up)
chain: MHSSKRVMTTKTHVEQPESSMRPQLPESIQGSLMDVGMRVRKSISTGYKSKQTTFPAYNPPLYNTVSENIALKNTAFSYEPNGTKRPFEQAIPNYNWANPPQDFEEPEWLKPFDVVMEGTNERL
modifications: full-length
B2: full-length Dss1: recombinant full-length S. pombe Dss1 (N71C) (protein)
chain: MSRAALPSLENLEDDDEFEDFATENWPMKDTELDTGDDTLWENNWDDEDIGDDDFSVQLQAELKKKGVAAC
modifications: left off: His6-SUMO, N-terminal, cleaved

Columns and labels:
[1] = Solubility noted during NMR sample preparation; assay type: physicochemical; details: NMR buffer; interaction mapped at 30 µM 15N-Spd1
ubiquitin = target: T1, ubiquitin (Schizosaccharomyces pombe, UniProt P0CH06); assay: NMR titration of 15N-ubiquitin (1H-15N HSQC chemical shift perturbations); assay type: binding, S. pombe; details: ratio of Kd values for ubiquitin
T1 construct: plasmid coding for S. pombe ubiquitin with an N-terminal 6xhistidine-tag, TEV-cleavage site as well as an N-terminal free cysteine; made in house; host or cells: E. coli BL21(DE3)
T1 sequence (P0CH06 1-76 limits assumed): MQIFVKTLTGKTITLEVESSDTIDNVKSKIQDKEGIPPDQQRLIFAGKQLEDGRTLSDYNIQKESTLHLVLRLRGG
Protocol: For interaction of the peptides with ^15N-ubiquitin, the lyophilized peptides were dissolved in MilliQ water and pH adjusted to 7.5. […] For the titrations of ubiquitin with each peptide, except the WT Dss1 peptide, 100 µM ubiquitin in NMR buffer was measured as one end point, and the 1 mM peptide and 100 µM ubiquitin as the other. Then, the peptide sample was titrated into the ubiquitin sample with titration points at 0, 50, 150, 300, 400, 500 and 1000 µM peptide. […] NMR samples were centrifuged 13.000×g for 5 min and transferred to either single-use 5 mm NMR tubes (Bruker) or 3 mm (Shigemi). To prepare NMR samples of ^15 N-labeled ubiquitin with full-length Dss1 and variants, lyophilized proteins were dissolved directly in the NMR buffer. The variants were each dissolved in 510 µL NMR buffer with 100 µM ubiquitin. The concentration of Dss1 in the NMR sample was determined by measuring the absorbance at 280 nm on a ND-1000 NanoDrop spectrophotometer, calibrated with the NMR buffer with 100 µM ubiquitin. The concentration of Dss1 varied between variants, depending on the purification yield. For all titrations, seven points of varying Dss1 concentration were recorded. To prepare NMR samples of ^15N-labeled ubiquitin with Spd1, Spd1 was buffer exchanged to MilliQ using a 3 kDa cut-off Amicon Ultra-0.5 ml centrifugal filter (Merk Millipore), lyophilized and resuspended in NMR buffer with 100 µM ubiquitin. […] For experiments with ubiquitin, 200 µL 1 mM ubiquitin was buffer exchanged to MilliQ water using a 3 kDa cut-off Amicon Ultra-0.5 ml centrifugal filter (Merk Millipore), lyophilized, and subsequently resuspended in 100 µL NMR buffer with 1 mM Dss1 for a final ubiquitin concentration of 2 mM and 1 mM, respectively. All samples were transferred to 3 mm (Shigemi) NMR tubes.
All NMR spectra were recorded on Bruker Avance III HD 600 MHz spectrometer with a Bruker proton-optimized quadruple resonance NMR ‘inverse’ (QCI) cryoprobe, a Bruker Avance III HD 750 MHz spectrometer with a Bruker proton-optimized triple resonance NMR ‘inverse’ (TCI) cryoprobe and a Bruker Avance Neo 800 MHz spectrometer with a Bruker carbon/nitrogen-optimized triple-resonance NMR 'observe' (TXO) cryoprobe. […] All spectra were zero-filled, apodized using cosine bells in all dimensions, Fourier transformed, and the zero-order phase was corrected manually using either nmrDraw, a component of NmrPipe or qMDD if spectra were recorded using non-linear-sampling (NLS). All spectra were analysed using the Analysis software.
The CSPs were fitted to a one-site-binding model using global fit, and the Kd-values are extracted using Eq. 2.2 Δδobs=Δδmax∙Pt+Lt+Kd-Pt+Lt+Kd^2-4Pt∙Lt^1/2/2∙Pt.
Peaks giving rise to large uncertainties in the fit, either due to weak signals or overlap, were removed after a first iteration of fitting, and the fit repeated on the remaining dataset.

| Molecule | solubility [1] | Kd of full-length protein lower than for the peptide alone (ubiquitin) |
| --- | --- | --- |
| B1 | low solubility | – |
| B2 | – | ~10 times |
